Results published in US20220177583A1 (University of California, published 2022).

Tests used:
[1] = biological target: T1, human CLDN6, endogenously expressed on cancer cell lines (human, UniProt P56747 1-220); assay: FACS dose curve, labelled mAb, ARK2 cells
T1 construct: also called Endogenous CLDN6+; CLDN6 on ARK2, OVCA429, UMUC4 cells
T1 sequence: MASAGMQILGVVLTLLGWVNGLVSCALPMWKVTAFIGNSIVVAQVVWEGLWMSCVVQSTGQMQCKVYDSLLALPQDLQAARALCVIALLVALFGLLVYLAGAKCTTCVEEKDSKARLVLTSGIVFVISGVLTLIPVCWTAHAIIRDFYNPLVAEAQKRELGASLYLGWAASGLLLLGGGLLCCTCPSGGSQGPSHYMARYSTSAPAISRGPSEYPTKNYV

[2] = biological target: T2, CLDN4-GFP expressed on engineered HEK293T cells (human, UniProt O14493 1-209); assay: FACS dose curve, labelled mAb, HEK293T CLDN4-mGFP cells
T2 construct: whole, on cells; also called HEK293T CLDN4-mGFP; Artificial CLDN4+; not shown: GFP tag
T2 sequence (looked up): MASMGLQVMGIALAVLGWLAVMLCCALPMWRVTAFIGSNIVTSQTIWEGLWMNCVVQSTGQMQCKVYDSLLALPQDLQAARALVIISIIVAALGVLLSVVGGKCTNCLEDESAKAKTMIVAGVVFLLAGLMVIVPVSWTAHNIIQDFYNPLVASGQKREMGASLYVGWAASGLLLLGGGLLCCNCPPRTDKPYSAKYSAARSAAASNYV

[3] = biological target: T3, CLDN9-GFP expressed on engineered HEK293T cells (human, UniProt O95484 1-217); assay: FACS dose curve, labelled mAb, HEK293T CLDN9-mGFP cells
T3 construct: whole, on cells; also called HEK293T CLDN9-mGFP; Artificial CLDN9+; not shown: GFP tag
T3 sequence (looked up): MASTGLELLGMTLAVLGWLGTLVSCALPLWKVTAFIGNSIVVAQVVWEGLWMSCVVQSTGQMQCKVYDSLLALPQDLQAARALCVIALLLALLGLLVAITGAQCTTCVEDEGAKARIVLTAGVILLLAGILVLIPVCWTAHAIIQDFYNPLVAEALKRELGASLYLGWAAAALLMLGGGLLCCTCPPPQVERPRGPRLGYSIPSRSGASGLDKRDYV

[4] = biological target: T1, human CLDN6, endogenously expressed on …; assay: FACS dose curve, labelled mAb, OVCA429 cells
[5] = biological target: T4, mouse CLDN6 fused to GFP, expressed on engineered HEK293T cells (mouse, UniProt Q9Z262 1-219); assay: FACS dose curve, labelled mAb, HEK293T-CLDN6-mGFP (mouse) cells
T4 construct: whole, on cells; also called HEK293T-CLDN6-mGFP Artificial CLDN6+ (mouse); murine CLDN6; not shown: GFP tag
T4 sequence (looked up): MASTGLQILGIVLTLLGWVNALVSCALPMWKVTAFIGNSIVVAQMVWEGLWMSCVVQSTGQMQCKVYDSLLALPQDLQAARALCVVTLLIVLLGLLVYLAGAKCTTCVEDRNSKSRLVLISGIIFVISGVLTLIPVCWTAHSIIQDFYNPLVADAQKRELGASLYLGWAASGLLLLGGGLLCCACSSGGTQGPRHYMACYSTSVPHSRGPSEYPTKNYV

B1: AB8 (antibody, V domains shown)
VH: QVQLQQSGAELARPGASVKMSCKASGYTFTTYTMHWLKQRPGQGLEWIGYINPRSGYSNYNQKFKDKATLTADKSSNTAYMQLNTLTSEDSKVYYCSRGELGGFAYWGQGTLVTVSA
VL: DVVMTQTPLSLPVSLGDQASISCRSSQSLVHSDGNTYLYWYLQKPGQSPKLLIYKVSNRFSGVPDRFSGSGSGTDFTLKISRVEAEDLGVYFCSQSTHVPYTFGGGTKLEIK
notes: Full-length IgG (ExpiCHO)
EC50 [1]: 1.14 µM
EC50 [2]: ≥ 5 µM
EC50 [3]: 2.77 µM
EC50 [4]: 1.09 µM
EC50 [5]: ≥ 5 µM

B2: AB7 (antibody, V domains shown)
VH: EVQLQQSGPELVKPGASMKISCKASGYSFTGYTMNWVKQSHGKNLEWIGLINPYNGGTNYNQKFKGKATLTVDKSSSTAYMELLSLTSEDSAVYYCARGVYDYDGFTYWGQGTLVTVSA
VL: QIVLTQSPAIMSASLGDRVTMTCTASSSVSSSYLHWYQQKPGSSPKLWIYSTSNLASGVPARFSGSGSGTSYSLTISSMEAEDAATYYCHQYHRSPPTFGSGTKLEIK
notes: Full-length IgG (ExpiCHO)
EC50 [1]: 0.353 µM
EC50 [2]: 2.09 µM
EC50 [3]: 1.94 µM
EC50 [4]: 0.531 µM
EC50 [5]: 1.55 µM

B3: AB6 (antibody, V domains shown)
VH: DVQLQESGPGLVKSSQSLSLTCSVTGYSITSGYYWKWIRQFPGNKLEWMGYISYDGGINYNPSLKNRISITRDTSKNQFFLKLNSVTTEDTAKYYCARFGKGAMDYWGQGTSVTVSS
VL: AIVMFQSPSSLVVSAGEKVTMSCKSSQSLLNSRTRKNYLAWYQQKPGQSPKLLIYWASTRESGVPDRFTGSGSGTDFTLTISSVQAEDLAVYYCKQSYYLYTFGGGTKLEIK
notes: Full-length IgG (ExpiCHO)
EC50 [1]: 0.765 µM
EC50 [2]: 0.026 µM
EC50 [3]: 2.77 µM
EC50 [4]: 0.394 µM
EC50 [5]: 2.22 µM
